Where no end group is shown, it is not given here. The star is where a group is joined. Biotin = O=C1N[C@H]2[C@H](CS[C@H]2CCCCC(=O)*)N1
Columns and labels:
[1] = biological target: T1, Rekombinantes menschliches CaN (Homo sapiens, UniProt Q08209); test: Flow cytometric, particle-based binding assay: FITC-CaN bound via biotinylated peptide to streptavidin beads; conditions: FITC-CaN (25 nM), versus control without peptide; for mittlere Fluoreszenzintensität (Bindung von FITC-CaN über NFAT-B-Peptid an Beads): biot-NFAT-B-Peptid (4µM); for mittlere Fluoreszenzintensität (Bindung von FITC-CaN über biotinyliertes Peptid an Beads): biot-VIVIT-Peptid (300 nM), Streptavidin-Beads (50000)
T1 construct: made in house; host or cells: E. coli
Protocol: Der Assaypuffer war wie folgt zusammengesetzt: 25mM Tris/HCl, 3mM MgCl2, 1mM EGTA, 0,5mM DTT oder TCEP, pH 7,4. Wenn nicht anders angegeben, wurde der Assaypuffer noch mit 0,05% BSA (PAA laboratories) versetzt.
Rekombinantes menschliches CaN wurde in Boratpuffer aufgenommen und mit FITC (Sigma) in einem molaren Verhältnis von 1:12 für 1h auf Eis und vor Licht geschützt inkubiert. Das ungebundenen FITC wurde dann über eine PD10 Säule (Amersham-Pharmacia) abgetrennt.
NFAT-B Peptid (4 µM) für 10 min lichtgeschützt auf Eis inkubierte, wurden 50000 beads in 10 µl Asaypuffer pipettiert. Nach weiteren 10 min Inkubation wurde das Reaktionsgemisch (110 µl) im Durchflusszytometer "FacsCalibur" (BD Biosciences) gemessen. […] Assay vorgeschaltet. Dafür wurde 1 µl Inhibitor (in DMSO) zu FITC-CaN in Assaypuffer (94 µl) pipettiert und anschließend für 30 min lichtgeschützt auf Eis belassen. Die Auswertung der Meßdaten erfolgte mit der Software CellQuest (BD Biosciences).

FITC-Ovalbumin = biological target: T2, FITC-Ovalbumin (Gallus gallus, UniProt P01012); test: Flow cytometric, particle-based binding assay with control protein FITC-Ovalbumin (specificity); conditions: FITC-Ovalbumin (25 nM); biot-VIVIT-Peptid (300 nM)
T2 construct: purchased Sigma
T2 sequence (P01012 1-386): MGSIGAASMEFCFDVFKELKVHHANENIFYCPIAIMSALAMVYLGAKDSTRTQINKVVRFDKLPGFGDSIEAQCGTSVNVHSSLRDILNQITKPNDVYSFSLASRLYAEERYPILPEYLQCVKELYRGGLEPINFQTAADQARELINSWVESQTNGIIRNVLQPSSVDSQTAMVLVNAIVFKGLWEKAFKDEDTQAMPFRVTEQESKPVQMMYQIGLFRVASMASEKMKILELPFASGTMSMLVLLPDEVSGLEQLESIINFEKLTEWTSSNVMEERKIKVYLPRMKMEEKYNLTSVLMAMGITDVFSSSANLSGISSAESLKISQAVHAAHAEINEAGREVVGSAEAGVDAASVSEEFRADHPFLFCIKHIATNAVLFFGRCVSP

mittlere Fluoreszenzintensität (Bindung von FITC-CaN über NFAT-B-Peptid an Beads) ([1]; mit Ca2+/Calmodulin) | mittlere Fluoreszenzintensität (Bindung von FITC-CaN über NFAT-B-Peptid an Beads) ([1]; ohne Ca2+/Calmodulin) | mittlere Fluoreszenzintensität (Bindung von FITC-CaN über biotinyliertes Peptid an Beads) ([1]; listed as biot-TIVIV-Peptid) | Fluoreszenzintensität (Bindung des Kontrollproteins FITC-Ovalbumin) (FITC-Ovalbumin) | Substance | mittlere Fluoreszenzintensität (Bindung von FITC-CaN über biotinyliertes Peptid an Beads) [1]
höhere mittlere Fluoreszenzintensität | höhere mittlere Fluoreszenzintensität | – | – | KGGFCDQYLAVPQHPYQWAK [biot-NFAT-B-Peptid] | –
– | – | keine erhöhte Fluoreszenzintensität | – | biotinyl-EEHPGTIVIVPHPGAMG (Biotin-EEHPGTIVIVPHPGAMG) [biot-TIVIV] | nicht mit biot-TIVIV eine erhöhte Fluoreszenzintensität
– | – | – | bindet | GGRRKRSESSKQQKPLE [AKAP79] | bindet

From patent EP1536230A1, “Flow cytometric, particle-based binding assay” (Deutsches Rheuma-Forschungszentrum Berlin, priority 2003, dated 2005)
